This data set has as its target MuvB complex (LIN9 94-542, LIN37, LIN52, LIN54 504-749, RBAP48) (Homo sapiens, UniProt Q5TKA1;Q96GY3;Q52LA3;Q6MZP7;Q09028 94-542;1-246;1-112;504-749;1-425). The experiment in a line: fluorescence polarization; Kd value only in figure table; FP nucleosomes/601: 50 mM Tris pH 7.5, 150 mM NaCl, 1 mM DTT, 0.1% Tween-20, 20 nM probe (stated for peptide); FP TTK: 20 nM DNA, 20 mM Tris pH 8.0, 150 mM NaCl, 0.1% Tween-20; temperature not stated. The settings on record: protein: recombinant; tags: GST/Strep/His tags removed by TEV; copies: 1;1;1;1;1; label: fluorescein. (In fluorescence polarisation assays a small probe gives low polarisation when free and higher when bound to something large.)

B1: TTK promoter 40-bp fragment (dsDNA)
DNA 1: GTGATAGCGACGGGGAAATTCAAACGTGTTTGCGGAAAGG
DNA 2: CCTTTCCGCAAACACGTTTGAATTTCCCCGTCGCTATCAC
In the case of B1, the binding result is “binds”.

Source of the values: PMC8792015, “The MuvB complex binds and stabilizes nucleosomes downstream of the transcription start site of cell-cycle dependent genes”.
